Data as given in patent US20170355757A1 (Regeneron, published 2017).
One block for each binder: values may come before it.

Legend:
human C5 R885C-mmh [1] = molecular target: T1, human C5 R885C-mmh (human, UniProt P01031 19-1676); test: SPR, mAb captured via anti-hFc, 37C
T1 construct: also called human C5 variant R885C
In short: (§1)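 Antibodies captured on anti-human Fc surface in HBST (HEPES pH 7.4, 3 mM EDTA); C5 reagents (commercial human C5 or myc-myc-His-tagged variants) associated 3 min, dissociated 8 min, at 25 °C or 37 °C. Sensorgrams fitted 1:1; KD = kd/ka, t½ = ln2/(60×kd).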

human C5 R885H-mmh [2] = molecular target: T2, human C5 R885H-mmh (human, UniProt P01031 19-1676); test: SPR, mAb captured via anti-hFc, 37C
T2 construct: also called human C5 variant R885H
In short: as §1

monkey C5-mmh = molecular target: T3, monkey C5-mmh (monkey, UniProt P01031 19-1676 (human entry), limits assumed); test: SPR, mAb captured via anti-hFc, 37C
T3 construct: Recombinant monkey C5 with a C-terminal myc-myc-hexahistidine tag
T3 chain: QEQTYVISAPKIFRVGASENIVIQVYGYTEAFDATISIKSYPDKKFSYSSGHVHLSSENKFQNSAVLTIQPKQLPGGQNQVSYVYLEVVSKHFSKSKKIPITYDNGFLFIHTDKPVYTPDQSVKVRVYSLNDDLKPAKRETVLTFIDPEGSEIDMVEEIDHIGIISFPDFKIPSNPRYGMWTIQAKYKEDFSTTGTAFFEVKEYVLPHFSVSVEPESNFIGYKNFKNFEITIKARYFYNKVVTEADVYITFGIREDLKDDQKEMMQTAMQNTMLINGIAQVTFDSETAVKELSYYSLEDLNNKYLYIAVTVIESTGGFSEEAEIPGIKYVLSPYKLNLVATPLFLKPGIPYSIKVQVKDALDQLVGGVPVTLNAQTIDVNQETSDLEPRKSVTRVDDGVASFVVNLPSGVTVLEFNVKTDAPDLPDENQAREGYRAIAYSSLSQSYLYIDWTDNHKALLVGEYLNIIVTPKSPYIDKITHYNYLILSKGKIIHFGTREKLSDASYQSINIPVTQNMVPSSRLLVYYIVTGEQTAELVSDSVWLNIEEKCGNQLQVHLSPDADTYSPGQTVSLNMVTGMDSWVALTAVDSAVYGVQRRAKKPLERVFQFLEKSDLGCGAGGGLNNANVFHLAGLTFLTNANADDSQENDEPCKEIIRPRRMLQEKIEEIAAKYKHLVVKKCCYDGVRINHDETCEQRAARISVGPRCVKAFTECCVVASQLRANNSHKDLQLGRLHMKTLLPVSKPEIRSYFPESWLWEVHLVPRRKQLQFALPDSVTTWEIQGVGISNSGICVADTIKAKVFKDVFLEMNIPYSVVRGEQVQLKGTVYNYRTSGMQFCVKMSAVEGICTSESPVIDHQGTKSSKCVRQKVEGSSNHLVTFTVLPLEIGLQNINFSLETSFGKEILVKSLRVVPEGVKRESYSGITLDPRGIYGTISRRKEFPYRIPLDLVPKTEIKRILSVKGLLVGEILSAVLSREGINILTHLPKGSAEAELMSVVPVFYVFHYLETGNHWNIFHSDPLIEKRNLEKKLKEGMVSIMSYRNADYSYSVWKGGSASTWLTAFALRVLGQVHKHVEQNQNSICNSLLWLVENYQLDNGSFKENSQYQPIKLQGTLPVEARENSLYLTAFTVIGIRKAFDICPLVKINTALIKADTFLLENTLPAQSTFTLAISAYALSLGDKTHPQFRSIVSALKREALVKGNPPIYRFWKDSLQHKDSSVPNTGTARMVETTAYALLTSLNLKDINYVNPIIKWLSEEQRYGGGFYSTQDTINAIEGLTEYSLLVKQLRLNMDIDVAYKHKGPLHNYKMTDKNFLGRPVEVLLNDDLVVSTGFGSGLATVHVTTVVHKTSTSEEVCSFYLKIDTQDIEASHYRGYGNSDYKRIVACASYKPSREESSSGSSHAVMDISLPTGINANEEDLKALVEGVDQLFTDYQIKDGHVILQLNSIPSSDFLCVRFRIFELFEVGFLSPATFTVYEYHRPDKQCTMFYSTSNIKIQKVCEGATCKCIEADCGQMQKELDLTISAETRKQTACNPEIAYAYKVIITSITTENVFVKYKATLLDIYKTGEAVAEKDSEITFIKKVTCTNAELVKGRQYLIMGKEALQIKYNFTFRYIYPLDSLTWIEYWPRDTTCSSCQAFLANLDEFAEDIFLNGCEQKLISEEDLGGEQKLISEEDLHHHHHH
In short: as §1

human C5 R885C-mmh [3] = molecular target: T1, human C5 R885C-mmh; test: SPR, mAb captured via anti-hFc, 25C
Procedure: (§2) Equilibrium dissociation constants (KD values) for C5 binding to purified anti-C5 antibodies were determined using a real-time surface plasmon resonance biosensor assay on a Biacore T200 instrument. The Biacore sensor surface was derivatized by amine coupling with a monoclonal mouse anti-human Fc antibody (GE Healthcare, # BR-1008-39) to capture anti-C5 antibodies expressed with human Fc constant regions. Biacore binding studies were conducted in HBST running buffer (0.01M HEPES pH 7.4, 0.15M NaCl, 3 mM EDTA, 0.05% v/v Surfactant P20).
(§3) Human C5 was obtained from a commercial source (EMD). Other C5 reagents were expressed with a C-terminal myc-myc-hexahistidine tag (subsequently referred to as C5-mmh). […] Association of all the C5 reagents to each of the captured monoclonal antibodies was monitored for 3 minutes and their dissociation in HBST running buffer was monitored for 8 minutes. All the binding kinetics experiments were performed at either 25° C. or 37° C. Kinetic association (kₐ) and dissociation (kd) rate constants were determined by fitting the real-time sensorgrams to a 1:1 binding model using Scrubber 2.0c curve fitting software. Binding dissociation equilibrium constants (KD) and dissociative half-lives (t %) were calculated from the kinetic rate constants as: KD (M)=kd/kₐ and t_{1/2} (min)=In2/(60×kd)

human C5 R885H-mmh [4] = molecular target: T2, human C5 R885H-mmh; test: SPR, mAb captured via anti-hFc, 25C
Procedure: as §2, §3

human C5 = molecular target: T4, human C5 (human, UniProt P01031 19-1676); test: SPR, mAb captured via anti-hFc, dissociation at pH7.4 vs pH6.0, 25C
T4 construct: Bought human C5 (EMD #204888, said elsewhere to be purified from plasma); also called hC5; complement component 5
Procedure: Effect of pH on the rate of dissociation of recombinant human C5 bound to purified anti-C5 monoclonal antibodies was determined using a real-time surface plasmon resonance biosensor using a Biacore T200 instrument. The Biacore sensor surface was first derivatized by amine coupling with a monoclonal mouse anti-human Fc antibody (GE, # BR-1008-39) to capture anti-C5 monoclonal antibodies expressed with human IgG4 Fc. All Biacore binding studies were performed using two running buffers PBS-T, pH7.4 (0.01M Na₂HPO₄/NaH₂PO₄, 0.15M NaCl, 0.05% v/v Tween-20, adjusted to pH7.4) and PBS-T, pH6.0 (0.01M Na₂HPO₄/NaH₂PO₄, 0.15M NaCl, 0.05% v/v Tween-20, adjusted to pH6.0). […] Binding dissociative half-lives (t %) were calculated from kd as: […]

100 nM Human C5 R885C-mmh Bound (RU) (human C5 R885C-mmh [1]): 78 RU | Kd (human C5 R885C-mmh [1]): 3.25 nM | koff (human C5 R885C-mmh [1]): 0.00143 s⁻¹ | kon (human C5 R885C-mmh [1]): 438000 M⁻¹ s⁻¹ | t1/2 (human C5 R885C-mmh [1]): 8 min | 100 nM Human C5 R885H-mmh Bound (RU) (human C5 R885H-mmh [2]): 81 RU | Kd (human C5 R885H-mmh [2]): 2.69 nM | koff (human C5 R885H-mmh [2]): 0.00147 s⁻¹ | kon (human C5 R885H-mmh [2]): 548000 M⁻¹ s⁻¹ | t1/2 (human C5 R885H-mmh [2]): 8 min | 100 nM monkey C5-mmh Bound (RU) (monkey C5-mmh): 303 RU | Kd (monkey C5-mmh): 2.16 nM | koff (monkey C5-mmh): 0.00115 s⁻¹ | kon (monkey C5-mmh): 535000 M⁻¹ s⁻¹ | t1/2 (monkey C5-mmh): 10 min | 100 nM Human C5 R885C-mmh Bound (RU) (human C5 R885C-mmh [3]): 116 RU | Kd (human C5 R885C-mmh [3]): 0.479 nM | koff (human C5 R885C-mmh [3]): 0.000239 s⁻¹ | kon (human C5 R885C-mmh [3]): 499000 M⁻¹ s⁻¹ | t1/2 (human C5 R885C-mmh [3]): 48 min | 100 nM Human C5 R885H-mmh Bound (RU) (human C5 R885H-mmh [4]): 118 RU | Kd (human C5 R885H-mmh [4]): 0.468 nM | koff (human C5 R885H-mmh [4]): 0.000246 s⁻¹ | kon (human C5 R885H-mmh [4]): 526000 M⁻¹ s⁻¹ | t1/2 (human C5 R885H-mmh [4]): 47 min | t1/2 Ratio pH7.4/pH6.0 (human C5): 2
B1: H4H11683N (antibody, V domains shown)
VH: QVQLVESGGGVVQPGRSLRLSCVASGFTFSSYGIHWVRQAPGKGLEWVAVIWDDGNNINYSDSVKGRFIISRDNSRKTVYLQMNSLRGEDTAVYYCARDAPIAPVPDYWGQGTLVTVSS
VL: DIQMTQSPSTLSASVGDRVTITCRASQSISSWLAWYQQKPGKAPKLLIYKASSLDTGVPSRFSGSGSGTEFTLTISSLQPDDFATYYCQQYNTYSYTFGLGTKLEIK
notes: also called H2M11683N

100 nM Human C5 R885C-mmh Bound (RU) (human C5 R885C-mmh [1]): 83 RU | Kd (human C5 R885C-mmh [1]): 4.97 nM | koff (human C5 R885C-mmh [1]): 0.00281 s⁻¹ | kon (human C5 R885C-mmh [1]): 566000 M⁻¹ s⁻¹ | t1/2 (human C5 R885C-mmh [1]): 4 min | 100 nM Human C5 R885H-mmh Bound (RU) (human C5 R885H-mmh [2]): 85 RU | Kd (human C5 R885H-mmh [2]): 4 nM | koff (human C5 R885H-mmh [2]): 0.0029 s⁻¹ | kon (human C5 R885H-mmh [2]): 724000 M⁻¹ s⁻¹ | t1/2 (human C5 R885H-mmh [2]): 4 min | 100 nM monkey C5-mmh Bound (RU) (monkey C5-mmh): 129 RU | Kd (monkey C5-mmh): 3.2 nM | koff (monkey C5-mmh): 0.00125 s⁻¹ | kon (monkey C5-mmh): 390000 M⁻¹ s⁻¹ | t1/2 (monkey C5-mmh): 9 min | 100 nM Human C5 R885C-mmh Bound (RU) (human C5 R885C-mmh [3]): 211 RU | Kd (human C5 R885C-mmh [3]): 0.858 nM | koff (human C5 R885C-mmh [3]): 0.000432 s⁻¹ | kon (human C5 R885C-mmh [3]): 504000 M⁻¹ s⁻¹ | t1/2 (human C5 R885C-mmh [3]): 27 min | 100 nM Human C5 R885H-mmh Bound (RU) (human C5 R885H-mmh [4]): 214 RU | Kd (human C5 R885H-mmh [4]): 0.646 nM | koff (human C5 R885H-mmh [4]): 0.000434 s⁻¹ | kon (human C5 R885H-mmh [4]): 672000 M⁻¹ s⁻¹ | t1/2 (human C5 R885H-mmh [4]): 27 min | t1/2 Ratio pH7.4/pH6.0 (human C5): 1.2
B2: H4H12163P (antibody, human IgG4, V domains shown)
VH: EVQLVESGGDLVQPGGSLRLSCAASGFTFSSYAMNWVRQGPGKGLEWVSAISGRGDSTYYADSVKGRLTISRDNSKNTLYLQMNSLRAEDTAVYYCVKEGEQLVYWYFDLWGRGTLVTVSS
VL: DIQMTQSPSSLSASVGDRVTITCRASQTISNFLHWYQQKPGKAPKLLIYAASSLQSGVPSRFSGSGSGTDFTLTISSLQPEDFSTYFCQQSYTTPLTFGGGTKVEIK
notes: Human IgG4 Fc with S108P hinge mutation (H4H)
